US20030135880A1, “Compositions and methods for halogenation reactions” (priority 2002, published 2003)

Key:
PrnA = biological target: T1, PrnA (Pseudomonas fluorescens, UniProt P95480); test: Activation of PrnA by electron transferases, 2 h assay (Example 2); assay type: biochemical; conditions: 20 microliter PrnA, 50 microliter NADH, 50 microliter electron transferase, room temperature
T1 construct: made in house; host or cells: Pseudomonas fluorescens BL915deltaORF1-4 with plasmid pPEH14 (prnA)
Protocol: The following components are used in examples 1-4 below: PrnA (described for Example 1 above) at 0.36 mg/ml, Assay Mixture containing HEPES (100 mM), glucose-6-phosphate, disodium salt (50 mM), D-Trp (5 mM), NaCl (5 mM). Aspergillus niger catalase (39 U/ml), bovine erythrocyte superoxide dismutase (15 U/ml), Leuconostoc mesenteroides glucose-6-phosphate dehydrogenase (10 U/ml). NADH-(3 mg/ml) NADPH (3 mg/ml).
Each assay contains the assay mixture, either NADH (for samples containing Fre and the NAD(P)H:FMN reductase) or NADPH (for samples containing FNR or FNR and Fd), PrnA and the indicated electron transferase. Negative control samples are incubated in parallel; these substituted buffer for PrnA. Quantification standards are prepared by diluting 0,1, 2 or 5 microliter of 7-Cl-Trp standard (1 mM) in 100 microliter Assay Mixture, 50 microliter NADH, 20 microliter PrnA and 50 microliter buffer; the tubes were heated to 100 C. prior to addition of PrnA, then heated an additional 2 min. Further processing is in parallel with the enzymatic reactions. All samples are mixed for 2 h at room temperature. Reactions are stopped and samples processed as described above in Example 1, including using the HPLC Analytical method PrnA1 as described in Example 1.

PrnC = biological target: T2, PrnC (Pseudomonas fluorescens, UniProt P95482); test: In vitro halogenation with PrnC: chlorination of MDA to APRN (Example 3); assay type: biochemical, P. fluorescens; conditions: Extract #2 (PrnC depleted of P2) plus 20 microliter electron transferase, NADH, overnight
T2 construct: made in house; host or cells: P. fluorescens (pPEH/prnC/134Δprn), plasmid pPEH-PrnC with tac promoter
T2 sequence (P95482 whole entry, looked up): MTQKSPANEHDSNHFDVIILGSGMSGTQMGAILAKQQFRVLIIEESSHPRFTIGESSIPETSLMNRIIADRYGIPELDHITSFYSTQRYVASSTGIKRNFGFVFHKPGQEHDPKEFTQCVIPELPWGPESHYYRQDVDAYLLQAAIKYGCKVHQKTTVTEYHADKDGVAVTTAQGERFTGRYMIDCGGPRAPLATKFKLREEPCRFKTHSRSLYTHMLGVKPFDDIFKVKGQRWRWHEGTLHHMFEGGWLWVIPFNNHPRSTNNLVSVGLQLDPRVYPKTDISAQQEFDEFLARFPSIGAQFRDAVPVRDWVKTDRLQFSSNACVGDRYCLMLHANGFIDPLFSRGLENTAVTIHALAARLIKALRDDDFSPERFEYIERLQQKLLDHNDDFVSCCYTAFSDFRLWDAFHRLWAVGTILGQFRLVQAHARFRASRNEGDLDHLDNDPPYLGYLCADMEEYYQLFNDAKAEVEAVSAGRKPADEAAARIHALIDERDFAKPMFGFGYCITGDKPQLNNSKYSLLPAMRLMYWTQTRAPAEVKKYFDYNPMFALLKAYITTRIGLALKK
Protocol: Fre, ferrodoxin NADP reductase, ferrodoxin and NADPH FMN-reductase are tested for the ability to activate P. fluorescens PrnC that was depleted of endogenous electron transferase (P2) as described below. PrnC catalyzes chlorination of monodechloroaminopyrrolnitrin (MDA) to yield aminopyrrolnitrin (APRN).
The following materials are prepared for use in assays described below. Buffer 100 mM Tris/Cl, 1 mM EDTA. pH 7.5. Monodechloroaminopyrrolnitrin (MDA) 74.2 mM is prepared by culture of Pseudomonas fluorescens expressing PrnA and PrnB as described in (Kirner et al,1998) which is herein incorporated by reference in its entirety. The assay mix comprises FAD (5 μM) and MDA (742 μM) in buffer. […]
The assays described below are run as follows; Extract #2 is mixed with the indicated electron transferase, assay mix and either NADH or NADPH as indicated. The native activity of PrnC prior to removal of the P2 activity is determined by a parallel sample in which extract #1 is mixed with assay mix and NADH. […] Samples are analyzed by PrnC_Iso method described below. The 220 nm absorbance chromatogram is analyzed and integrated. PrnC activity is expressed as 100 times the ratio of the APRN peak area to the sum of the peak areas of APRN and MDA. Assuming equal extinction coefficients at 220 nm the calculated ratio is equivalent to the net % conversion of MDA to APRN by halogenation. […]

T1 sequence (P95480 whole entry): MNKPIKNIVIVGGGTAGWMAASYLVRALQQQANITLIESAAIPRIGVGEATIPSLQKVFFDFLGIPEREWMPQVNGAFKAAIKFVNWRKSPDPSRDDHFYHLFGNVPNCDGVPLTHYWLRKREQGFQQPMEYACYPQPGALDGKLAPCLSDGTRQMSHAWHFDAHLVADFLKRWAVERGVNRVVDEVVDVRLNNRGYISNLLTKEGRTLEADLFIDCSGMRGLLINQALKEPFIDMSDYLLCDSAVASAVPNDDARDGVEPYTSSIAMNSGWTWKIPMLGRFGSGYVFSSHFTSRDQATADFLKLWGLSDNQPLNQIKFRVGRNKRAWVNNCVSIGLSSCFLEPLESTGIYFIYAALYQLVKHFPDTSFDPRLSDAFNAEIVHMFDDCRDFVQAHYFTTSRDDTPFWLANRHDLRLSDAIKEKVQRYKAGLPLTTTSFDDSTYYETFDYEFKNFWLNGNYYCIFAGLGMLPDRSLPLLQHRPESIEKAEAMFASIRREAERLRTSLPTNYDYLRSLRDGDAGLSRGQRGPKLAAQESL

ferrodoxin NADP reductase and ferrodoxin: Spinach ferredoxin NADP reductase used together with spinach ferredoxin (Fd)
Net 7-Cl-Trp produced (PrnA): 9.15 nmol | PrnC activity, conversion of MDA to APRN (PrnC): 2.5%
